Values of other authors in paper PMC11381654.

Target: IL-4Rα (Homo sapiens) (UniProt P24394)

In the case of dupilumab, the Kd is listed as 0.033 nM.
